According to article doi:10.1101/2025.05.27.656348:

Biological target: RELMβ bait: RELMβ fused to rat CD4d3+4, BirA recognition site and 6X-histidine tag (mouse) (UniProt Q99P86)
Assay: SPR

Sequence of UniProt Q99P86 (Q99P86 24-105): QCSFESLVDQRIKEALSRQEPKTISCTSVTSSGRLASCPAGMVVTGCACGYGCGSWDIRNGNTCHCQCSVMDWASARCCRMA

In the case of “HpBoRB, C-terminal 6X-His tagged, from the pSecTAG2A expression vector (natural protein)”, the Kd is reported as < 0.1 nM.
